From paper PMC9482650, “Quantitative fragmentomics allow affinity mapping of interactomes” (Nature Communications, 2022)

B1: RAB9A, P51151 (peptide)
chain: RKPKPSSSCC
B2: SLC2A7, Q6PXP3 (peptide)
chain: TASPAKETSF
B3: ABCC6, O95255 (peptide)
chain: YRLAQESGLV
B4: FLVCR1, Q9Y5Y0 (peptide)
chain: MLSKQSESAI

Target: T1, APBA1_1, Q02410
T1 sequence (Q02410 651-752, limits assumed, looked up): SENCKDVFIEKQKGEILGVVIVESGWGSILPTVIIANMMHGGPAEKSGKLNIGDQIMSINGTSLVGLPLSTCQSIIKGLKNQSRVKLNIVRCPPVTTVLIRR
Experiment: holdup assay
Design: key: below the threshold = too weak to quantify, mostly under pKd 3.1 to 4
Conditions: plain residues with an end cap or a label only (N-terminal biotin on a linker: ado-ado)

Row | Binder | pKd
1 | B1 | below the threshold
2 | B2 | below the threshold
3 | B3 | below the threshold
4 | B4 | below the threshold

Target: T2, ARHGEF11, O15085
T2 sequence (O15085 42-136, limits assumed, looked up): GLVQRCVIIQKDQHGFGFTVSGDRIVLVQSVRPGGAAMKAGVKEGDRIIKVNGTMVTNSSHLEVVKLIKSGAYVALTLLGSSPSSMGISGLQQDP
Experiment: holdup assay
Design: key: below the threshold = too weak to quantify, mostly under pKd 3.1 to 4
Conditions: plain residues with an end cap or a label only (N-terminal biotin on a linker: ado-ado)

Row | Binder | pKd
5 | B1 | below the threshold
6 | B2 | below the threshold
7 | B3 | below the threshold
8 | B4 | below the threshold

Target: T3, DLG3_2, Q92796
T3 sequence (Q92796 221-321, limits assumed, looked up): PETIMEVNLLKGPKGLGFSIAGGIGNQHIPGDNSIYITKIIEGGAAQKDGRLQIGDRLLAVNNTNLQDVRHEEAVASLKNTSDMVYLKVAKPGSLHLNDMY
Experiment: holdup assay
Design: key: below the threshold = too weak to quantify, mostly under pKd 3.1 to 4
Conditions: plain residues with an end cap or a label only (N-terminal biotin on a linker: ado-ado)

Row | Binder | pKd
9 | B1 | 4.1
10 | B2 | 4.25
11 | B3 | below the threshold
12 | B4 | 3.68

Target: DLG4_2, P78352
Sequence (P78352 155-259): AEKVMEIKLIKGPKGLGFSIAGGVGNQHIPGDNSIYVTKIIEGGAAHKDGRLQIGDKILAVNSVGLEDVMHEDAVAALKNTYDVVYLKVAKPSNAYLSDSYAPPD
Experiment: holdup assay
Design: key: below the threshold = too weak to quantify, mostly under pKd 3.1 to 4
Conditions: plain residues with an end cap or a label only (N-terminal biotin on a linker: ado-ado)

Row | Binder | pKd
13 | B1 | below the threshold
14 | B2 | 4.11
15 | B3 | 3.55
16 | B4 | 3.84

Target: T4, FRMPD1, Q5SYB0
T4 sequence (Q5SYB0 52-145, limits assumed, looked up): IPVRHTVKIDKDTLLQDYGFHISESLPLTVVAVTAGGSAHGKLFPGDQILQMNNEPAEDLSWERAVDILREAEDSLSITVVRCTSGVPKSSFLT
Experiment: holdup assay
Design: key: below the threshold = too weak to quantify, mostly under pKd 3.1 to 4
Conditions: plain residues with an end cap or a label only (N-terminal biotin on a linker: ado-ado)

Row | Binder | pKd
17 | B1 | below the threshold
18 | B2 | below the threshold
19 | B3 | below the threshold
20 | B4 | below the threshold

Target: FRMPD2_1, Q68DX3
Sequence (Q68DX3 770-861): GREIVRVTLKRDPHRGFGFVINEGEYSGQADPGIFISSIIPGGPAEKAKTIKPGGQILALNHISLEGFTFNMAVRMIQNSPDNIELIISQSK
Experiment: holdup assay
Design: key: below the threshold = too weak to quantify, mostly under pKd 3.1 to 4
Conditions: plain residues with an end cap or a label only (N-terminal biotin on a linker: ado-ado)

Row | Binder | pKd
21 | B1 | below the threshold
22 | B2 | below the threshold
23 | B3 | below the threshold
24 | B4 | below the threshold

Target: FRMPD2_3, Q68DX3
Sequence (Q68DX3 1073-1166): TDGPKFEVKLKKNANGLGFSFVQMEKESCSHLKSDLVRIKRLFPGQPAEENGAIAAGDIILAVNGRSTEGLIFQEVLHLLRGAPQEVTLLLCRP
Experiment: holdup assay
Design: key: below the threshold = too weak to quantify, mostly under pKd 3.1 to 4
Conditions: plain residues with an end cap or a label only (N-terminal biotin on a linker: ado-ado)

Row | Binder | pKd
25 | B1 | below the threshold
26 | B2 | below the threshold
27 | B3 | below the threshold
28 | B4 | below the threshold

Target: GIPC2, Q8TF65
Sequence (Q8TF65 112-203): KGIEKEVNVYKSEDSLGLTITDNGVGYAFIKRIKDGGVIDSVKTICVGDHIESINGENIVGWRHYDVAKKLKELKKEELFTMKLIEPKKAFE
Experiment: holdup assay
Design: key: below the threshold = too weak to quantify, mostly under pKd 3.1 to 4
Conditions: plain residues with an end cap or a label only (N-terminal biotin on a linker: ado-ado)

Row | Binder | pKd
29 | B1 | 3.73
30 | B2 | below the threshold
31 | B3 | below the threshold
32 | B4 | 3.74

Target: GOPC, Q9HD26
Experiment: holdup assay
Design: key: below the threshold = too weak to quantify, mostly under pKd 3.1 to 4
Conditions: plain residues with an end cap or a label only (N-terminal biotin on a linker: ado-ado)

Row | Binder | pKd
33 | B1 | below the threshold
34 | B2 | below the threshold
35 | B3 | below the threshold
36 | B4 | below the threshold

Target: GORASP1, Q9BQQ3
Sequence (Q9BQQ3 1-208): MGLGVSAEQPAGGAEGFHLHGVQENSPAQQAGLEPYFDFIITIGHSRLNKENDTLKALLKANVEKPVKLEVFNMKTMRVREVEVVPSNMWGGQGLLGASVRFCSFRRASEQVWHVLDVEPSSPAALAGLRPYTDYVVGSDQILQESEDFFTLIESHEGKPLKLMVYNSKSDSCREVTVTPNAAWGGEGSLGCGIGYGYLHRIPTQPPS
Experiment: holdup assay
Design: key: below the threshold = too weak to quantify, mostly under pKd 3.1 to 4
Conditions: plain residues with an end cap or a label only (N-terminal biotin on a linker: ado-ado)

Row | Binder | pKd
37 | B1 | below the threshold
38 | B2 | below the threshold
39 | B3 | below the threshold
40 | B4 | below the threshold

Target: T5, HTRA3, P83110
T5 sequence (P83110 354-453, limits assumed, looked up): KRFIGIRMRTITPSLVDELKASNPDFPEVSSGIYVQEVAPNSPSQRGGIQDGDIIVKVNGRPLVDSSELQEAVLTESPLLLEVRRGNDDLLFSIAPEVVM
Experiment: holdup assay
Design: key: below the threshold = too weak to quantify, mostly under pKd 3.1 to 4
Conditions: plain residues with an end cap or a label only (N-terminal biotin on a linker: ado-ado)

Row | Binder | pKd
41 | B1 | 4.6
42 | B2 | below the threshold
43 | B3 | below the threshold
44 | B4 | below the threshold

Target: Inadl_1, Q8NI35
Sequence (Q8NI35 113-229): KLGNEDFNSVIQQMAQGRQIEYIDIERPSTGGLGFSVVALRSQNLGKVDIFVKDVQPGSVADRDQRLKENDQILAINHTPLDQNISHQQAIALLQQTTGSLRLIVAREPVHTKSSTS
Experiment: holdup assay
Design: key: below the threshold = too weak to quantify, mostly under pKd 3.1 to 4
Conditions: plain residues with an end cap or a label only (N-terminal biotin on a linker: ado-ado)

Row | Binder | pKd
45 | B1 | below the threshold
46 | B2 | below the threshold
47 | B3 | below the threshold
48 | B4 | below the threshold

Target: Inadl_10, Q8NI35
Sequence (Q8NI35 1673-1763): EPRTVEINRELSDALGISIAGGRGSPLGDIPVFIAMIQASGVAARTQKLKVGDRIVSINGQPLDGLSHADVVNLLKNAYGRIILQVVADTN
Experiment: holdup assay
Design: key: below the threshold = too weak to quantify, mostly under pKd 3.1 to 4
Conditions: plain residues with an end cap or a label only (N-terminal biotin on a linker: ado-ado)

Row | Binder | pKd
49 | B1 | below the threshold
50 | B2 | below the threshold
51 | B3 | below the threshold
52 | B4 | below the threshold

Target: Inadl_4, Q8NI35
Sequence (Q8NI35 547-651): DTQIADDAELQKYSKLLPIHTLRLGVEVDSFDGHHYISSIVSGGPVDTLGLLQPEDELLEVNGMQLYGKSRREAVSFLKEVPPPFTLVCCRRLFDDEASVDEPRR
Experiment: holdup assay
Design: key: below the threshold = too weak to quantify, mostly under pKd 3.1 to 4
Conditions: plain residues with an end cap or a label only (N-terminal biotin on a linker: ado-ado)

Row | Binder | pKd
53 | B1 | below the threshold
54 | B2 | below the threshold
55 | B3 | below the threshold
56 | B4 | below the threshold

Target: Inadl_6, Q8NI35
Sequence (Q8NI35 1058-1167): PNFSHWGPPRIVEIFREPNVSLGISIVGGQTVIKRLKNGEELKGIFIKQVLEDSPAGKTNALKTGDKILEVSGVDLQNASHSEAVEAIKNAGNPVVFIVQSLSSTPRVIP
Experiment: holdup assay
Design: key: below the threshold = too weak to quantify, mostly under pKd 3.1 to 4
Conditions: plain residues with an end cap or a label only (N-terminal biotin on a linker: ado-ado)

Row | Binder | pKd
57 | B1 | below the threshold
58 | B2 | below the threshold
59 | B3 | below the threshold
60 | B4 | below the threshold

Target: Inadl_8, Q8NI35
Sequence (Q8NI35 1425-1530): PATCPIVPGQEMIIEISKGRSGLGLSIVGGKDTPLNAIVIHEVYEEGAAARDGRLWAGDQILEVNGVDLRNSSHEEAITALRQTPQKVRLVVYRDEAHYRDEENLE
Experiment: holdup assay
Design: key: below the threshold = too weak to quantify, mostly under pKd 3.1 to 4
Conditions: plain residues with an end cap or a label only (N-terminal biotin on a linker: ado-ado)

Row | Binder | pKd
61 | B1 | below the threshold
62 | B2 | below the threshold
63 | B3 | below the threshold
64 | B4 | below the threshold

Target: T6, LIN7B, Q9HAP6
T6 sequence (Q9HAP6 88-185, limits assumed, looked up): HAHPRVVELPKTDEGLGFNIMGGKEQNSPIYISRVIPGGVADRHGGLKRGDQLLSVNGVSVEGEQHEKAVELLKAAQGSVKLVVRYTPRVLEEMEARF
Experiment: holdup assay
Design: key: below the threshold = too weak to quantify, mostly under pKd 3.1 to 4
Conditions: plain residues with an end cap or a label only (N-terminal biotin on a linker: ado-ado)

Row | Binder | pKd
65 | B1 | 3.75
66 | B2 | 4.5
67 | B3 | below the threshold
68 | B4 | below the threshold

Target: LNX1_2, Q8TBB1
Sequence (Q8TBB1 371-470): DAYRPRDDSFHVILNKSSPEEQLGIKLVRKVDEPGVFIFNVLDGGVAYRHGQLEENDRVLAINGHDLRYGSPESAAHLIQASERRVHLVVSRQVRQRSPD
Experiment: holdup assay
Design: key: below the threshold = too weak to quantify, mostly under pKd 3.1 to 4
Conditions: plain residues with an end cap or a label only (N-terminal biotin on a linker: ado-ado)

Row | Binder | pKd
69 | B1 | below the threshold
70 | B2 | below the threshold
71 | B3 | below the threshold
72 | B4 | below the threshold

Target: LNX1_3, Q8TBB1
Sequence (Q8TBB1 500-596): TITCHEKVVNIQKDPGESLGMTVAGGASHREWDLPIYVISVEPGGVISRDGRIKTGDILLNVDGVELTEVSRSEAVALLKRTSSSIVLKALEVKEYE
Experiment: holdup assay
Design: key: below the threshold = too weak to quantify, mostly under pKd 3.1 to 4
Conditions: plain residues with an end cap or a label only (N-terminal biotin on a linker: ado-ado)

Row | Binder | pKd
73 | B1 | below the threshold
74 | B2 | below the threshold
75 | B3 | below the threshold
76 | B4 | below the threshold

Target: MAGI1_2, Q96QZ7
Sequence (Q96QZ7 456-580): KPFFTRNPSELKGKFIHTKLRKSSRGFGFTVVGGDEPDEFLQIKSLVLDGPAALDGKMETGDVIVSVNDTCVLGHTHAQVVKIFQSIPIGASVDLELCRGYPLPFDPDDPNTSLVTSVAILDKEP
Experiment: holdup assay
Design: key: below the threshold = too weak to quantify, mostly under pKd 3.1 to 4
Conditions: plain residues with an end cap or a label only (N-terminal biotin on a linker: ado-ado)

Row | Binder | pKd
77 | B1 | 3.64
78 | B2 | below the threshold
79 | B3 | below the threshold
80 | B4 | below the threshold

Target: MAGI2_3, Q86UL8
Sequence (Q86UL8 600-682): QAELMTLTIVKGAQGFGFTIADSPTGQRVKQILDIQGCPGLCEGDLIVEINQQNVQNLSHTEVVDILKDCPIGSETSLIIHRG
Experiment: holdup assay
Design: key: below the threshold = too weak to quantify, mostly under pKd 3.1 to 4
Conditions: plain residues with an end cap or a label only (N-terminal biotin on a linker: ado-ado)

Row | Binder | pKd
81 | B1 | below the threshold
82 | B2 | below the threshold
83 | B3 | below the threshold
84 | B4 | below the threshold

Target: MAGI3_2, Q5TCQ9
Sequence (Q5TCQ9 398-503): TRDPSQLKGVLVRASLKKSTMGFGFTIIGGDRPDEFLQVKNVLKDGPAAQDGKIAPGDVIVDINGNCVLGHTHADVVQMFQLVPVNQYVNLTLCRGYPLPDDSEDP
Experiment: holdup assay
Design: key: below the threshold = too weak to quantify, mostly under pKd 3.1 to 4
Conditions: plain residues with an end cap or a label only (N-terminal biotin on a linker: ado-ado)

Row | Binder | pKd
85 | B1 | below the threshold
86 | B2 | below the threshold
87 | B3 | below the threshold
88 | B4 | 4.45

Target: MAST2, Q6P0Q8
Sequence (Q6P0Q8 1099-1202): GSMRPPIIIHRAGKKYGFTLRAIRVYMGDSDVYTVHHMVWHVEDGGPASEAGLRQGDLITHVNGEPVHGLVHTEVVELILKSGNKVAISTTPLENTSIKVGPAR
Experiment: holdup assay
Design: key: below the threshold = too weak to quantify, mostly under pKd 3.1 to 4
Conditions: plain residues with an end cap or a label only (N-terminal biotin on a linker: ado-ado)

Row | Binder | pKd
89 | B1 | 3.69
90 | B2 | 5.21
91 | B3 | 4.1
92 | B4 | 4.58

Target: T7, NHERF3_3, Q5T2W1
T7 sequence (Q5T2W1 238-333, limits assumed, looked up): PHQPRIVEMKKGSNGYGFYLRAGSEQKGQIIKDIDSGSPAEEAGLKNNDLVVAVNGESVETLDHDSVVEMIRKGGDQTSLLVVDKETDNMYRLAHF
Experiment: holdup assay
Design: key: below the threshold = too weak to quantify, mostly under pKd 3.1 to 4
Conditions: plain residues with an end cap or a label only (N-terminal biotin on a linker: ado-ado)

Row | Binder | pKd
93 | B1 | below the threshold
94 | B2 | below the threshold
95 | B3 | below the threshold
96 | B4 | below the threshold

Target: NHERF4_4, Q86UT5
Sequence (Q86UT5 464-550): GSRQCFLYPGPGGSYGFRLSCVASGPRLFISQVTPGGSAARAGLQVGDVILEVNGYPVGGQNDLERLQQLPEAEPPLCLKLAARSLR
Experiment: holdup assay
Design: key: below the threshold = too weak to quantify, mostly under pKd 3.1 to 4
Conditions: plain residues with an end cap or a label only (N-terminal biotin on a linker: ado-ado)

Row | Binder | pKd
97 | B1 | below the threshold
98 | B2 | below the threshold
99 | B3 | below the threshold
100 | B4 | 3.92

Target: PARD3_3, Q8TEW0
Sequence (Q8TEW0 582-685): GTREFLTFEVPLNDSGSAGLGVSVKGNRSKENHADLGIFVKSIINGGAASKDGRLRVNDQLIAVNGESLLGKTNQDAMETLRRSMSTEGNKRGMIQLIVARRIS
Experiment: holdup assay
Design: key: below the threshold = too weak to quantify, mostly under pKd 3.1 to 4
Conditions: plain residues with an end cap or a label only (N-terminal biotin on a linker: ado-ado)

Row | Binder | pKd
101 | B1 | below the threshold
102 | B2 | below the threshold
103 | B3 | below the threshold
104 | B4 | below the threshold

Target: T8, RHPN1, Q8TCX5
T8 sequence (Q8TCX5 508-602, limits assumed, looked up): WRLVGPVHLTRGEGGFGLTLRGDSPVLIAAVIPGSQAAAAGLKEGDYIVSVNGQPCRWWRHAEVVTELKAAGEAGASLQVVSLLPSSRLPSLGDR
Experiment: holdup assay
Design: key: below the threshold = too weak to quantify, mostly under pKd 3.1 to 4
Conditions: plain residues with an end cap or a label only (N-terminal biotin on a linker: ado-ado)

Row | Binder | pKd
105 | B1 | below the threshold
106 | B2 | 3.97
107 | B3 | below the threshold
108 | B4 | 4.01

Target: T9, SNTA1, Q13424
T9 sequence (Q13424 82-180, limits assumed, looked up): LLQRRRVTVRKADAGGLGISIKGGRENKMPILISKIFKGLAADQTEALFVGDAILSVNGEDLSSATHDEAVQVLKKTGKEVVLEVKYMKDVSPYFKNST
Experiment: holdup assay
Design: key: below the threshold = too weak to quantify, mostly under pKd 3.1 to 4
Conditions: plain residues with an end cap or a label only (N-terminal biotin on a linker: ado-ado)

Row | Binder | pKd
109 | B1 | below the threshold
110 | B2 | 3.57
111 | B3 | below the threshold
112 | B4 | 3.73
